Source: the supplement of paper PMC9732359
± gives the uncertainty stated by the source.

Assay: protein stability index of a GFP-peptide fusion (yeast GPS) (PSI 1-4); higher = more stable; sorted into four equal gates, so the index is relative within each strain
Procedure, shortened: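 Plasmids isolated from each sorting gate were PCR-amplified and Illumina-sequenced, and barcodes assigned the reads to strains. The gates, four of equal size, were set by GFP/Cherry fluorescence ratio on mid-log cultures in leucine-free medium. These cultures were yeast carrying a pooled library of tiled 17-residue yeast protein peptides fused downstream of GFP on a plasmid that also expresses Cherry. The protein stability index is the sum of every gate's read frequency times its gate number.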

| Sequence | protein stability index (doa10∆) | protein stability index (pdr5∆) | protein stability index (san1∆) | protein stability index (ubr1∆) |
| --- | --- | --- | --- | --- |
| LPKLKATGHRVLIFFQM [SNF2] | 1.69 ± 0.13 | 1.52 ± 0.083 | 2.09 ± 0.12 | 2.09 ± 0.14 |
| LPLRLQFNEFIQIMANI [PGD1] | 1.52 ± 0.078 | 1.51 ± 0.088 | 1.28 ± 0.14 | 1.17 ± 0.084 |
| LPNEAGRLEIFKIHTAK [RPT4] | 2.6 ± 0.16 | 3.07 ± 0.16 | 2.92 ± 0.19 | 2.66 ± 0.11 |
| LPNLGTPDDDEIDVENH [RPN8] | 1.53 ± 0.076 | 1.82 ± 0.083 | 1.69 ± 0.11 | 1.42 ± 0.056 |
| LPPNWKYESATASALVN [RPS13] | 2.21 ± 0.081 | 2.59 ± 0.095 | 2.69 ± 0.064 | 2.12 ± 0.049 |
| LPPPEDVAFLKTAYSIY [RPN1] | 2.4 ± 0.06 | 2.36 ± 0.052 | 2.46 ± 0.069 | 2.47 ± 0.053 |
| LPSEERIQKIISKRKEE [YIL149C/MLP2] | 1.74 ± 0.08 | 1.66 ± 0.074 | 1.41 ± 0.16 | 1.65 ± 0.055 |
| LPSSNGSSRIIASDGSE [RRP42] | 3.08 ± 0.091 | 2.86 ± 0.11 | 3.17 ± 0.11 | 2.74 ± 0.085 |
| LQDEVMNIKPVQKQTRA [RPS2] | 2.91 ± 0.2 | 3.12 ± 0.18 | 2.42 ± 0.14 | 3.63 ± 0.19 |
| LQEKFLNQIATLKIHLK [IRR1] | 1.22 ± 0.12 | 1.4 ± 0.11 |  | 1.03 ± 0.093 |
| LQKEKELHKEGTISKLE [SMC2] | 2.89 ± 0.075 | 3.08 ± 0.08 | 1.83 ± 0.06 | 2.5 ± 0.05 |
| LQLIIFLRTQFLKLYVL [RGR1] | 1.25 ± 0.1 | 1.4 ± 0.11 | 1.53 ± 0.12 | 1.41 ± 0.091 |
| LQNCCIIDVGTHHTDII [ARP9] | 1.43 ± 0.11 | 1.9 ± 0.07 | 1.51 ± 0.15 | 2.28 ± 0.066 |
| LQPIFKGEEAKLDSKKT [SSN3] | 3.52 ± 0.2 | 3.11 ± 0.23 | 3.54 ± 0.17 |  |
| LQQAKLRESEISQKLTN [SMC3] | 3.18 ± 0.076 | 3.17 ± 0.073 | 3.15 ± 0.087 | 2.97 ± 0.069 |
| LQQGMRGAWGKPHGLAA [RPL10] | 2.47 ± 0.1 | 2.57 ± 0.097 | 2.24 ± 0.23 | 2.52 ± 0.069 |
| LQSISSLTISLYASDYA [RPN7] | 1.71 ± 0.031 | 1.84 ± 0.03 | 1.83 ± 0.039 | 1.95 ± 0.027 |
| LQSIVNEISRNGTMINE [PCI8] | 2.93 ± 0.12 | 2.64 ± 0.13 | 2.67 ± 0.13 | 2.9 ± 0.12 |
| LQVADKFFRVKYENKIS [SMC3] | 2.14 ± 0.073 | 2.3 ± 0.05 | 1.67 ± 0.092 | 1.52 ± 0.03 |
| LQYLPLYAVSTFENTNN [SIR4] | 1.82 ± 0.038 | 1.71 ± 0.042 | 1.41 ± 0.057 | 2.31 ± 0.046 |
| LRACAANVDQISFLEPI [YMR129W/POM152] | 3.06 ± 0.072 | 2.98 ± 0.07 | 2.92 ± 0.05 | 2.97 ± 0.046 |
| LRDTFIELDQVLNMLYW [RPO21] | 2.19 ± 0.1 | 2.51 ± 0.058 | 2.4 ± 0.07 | 2.27 ± 0.06 |
| LRLFINEEGDWSCIVVE [ITC1] | 2.74 ± 0.088 | 2.62 ± 0.083 | 3.07 ± 0.083 | 3.19 ± 0.1 |
| LRNWEELNIIPRDLLRV [PRP28] | 1.09 ± 0.068 | 1.35 ± 0.061 | 1.39 ± 0.21 | 1.07 ± 0.048 |
| LRQLASYYSREQDALFI [RPN1] | 1.7 ± 0.045 | 1.8 ± 0.046 | 1.63 ± 0.08 | 1.81 ± 0.042 |
| LRRRTASHNVRRIPKRM [POP1] | 2.98 ± 0.065 | 3.02 ± 0.062 | 2.85 ± 0.052 | 2.75 ± 0.042 |
| LRSKTSAGRIESNNPSH [SIR4] | 2.56 ± 0.1 | 2.48 ± 0.081 | 2.55 ± 0.18 | 2.79 ± 0.098 |
